Reference: article PMC11189558, “Mutations found in cancer patients compromise DNA binding of the winged helix protein STK19”

What was measured:
Assay in all cases: EMSA; 20 mM HEPES pH 7.4, 100 mM NaCl, 1 mM MgCl2, 1 mg/ml BSA, 2 mM DTT, 5% glycerol; 30 min on ice; native 5% PAGE in 1X TBE
Details in all cases: protein: recombinant; tags: GST cleaved; GPLGS left at N-terminus; blunt
STK19 R215E/R216E = STK19 R215E/R216E (human, UniProt P49842 31-254, R215E;R216E)
STK19 K186E = STK19 K186E (human, UniProt P49842 31-254, K186E)
STK19 K186E, sequence (P49842 31-254 K186E): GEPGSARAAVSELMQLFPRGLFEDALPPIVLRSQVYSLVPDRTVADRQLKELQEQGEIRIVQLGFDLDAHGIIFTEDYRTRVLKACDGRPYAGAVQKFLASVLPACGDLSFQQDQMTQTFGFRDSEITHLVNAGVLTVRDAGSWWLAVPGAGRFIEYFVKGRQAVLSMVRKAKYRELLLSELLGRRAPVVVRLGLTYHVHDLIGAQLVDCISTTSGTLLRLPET

STK19 R200E/K201E/K203E = STK19 R200E/K201E/K203E (human, UniProt P49842 31-254, R200E;K201E;K203E)
STK19 R200E/K201E/K203E, sequence (P49842 31-254 R200E/K201E/K203E): as the sequence (P49842 31-254 K186E) above, with E156K, R170E, K171E, K173E counted along it

Measured: binding result

STK19 R215E/R216E, sequence (P49842 31-254 R215E/R216E): as the sequence (P49842 31-254 K186E) above, with E156K, R185E, R186E counted along it

B1: 59 bp dsDNA (dsDNA)
DNA 1: GAGCTGCCGAATTCTACCAGTGCCTTGCTAGGACATCTTTGCCCACCTGCAGGTTCACC
DNA 2: GGTGAACCTGCAGGTGGGCAAAGATGTCCTAGCAAGGCACTGGTAGAATTCGGCAGCTC
no binding: all assays above
